The labels stand for the following.
B1: SBP-UPF1 ΔStalkΔSQ1 (domain or fragment)
chain: MSVEAYGPSSQTLTFLDTEEAELLGADTQGSEFEFTDFTLPSQTQTPPGGPGGPGGGGAGGPGGAGAGAAAGQLDAQVGPEGILQNGAVDDSVAKTSQLLAELNFEEDEEDTYYTKDLPIHACSYCGIHDPACVVYCNTSKKWFCNGRGNTSGSHIVNHLVRAKCKEVTLHKDGPLGETVLECYNCGCRNVFLLGFIPAKADSVVVLLCRQPCASQSSLKDINWDSSQWQPLIQDRCFLSWLVKIPSEQEQLRARQITAQQINKLEELWKETSVSGYIYHKLLGHEVEDVIIKCQLPKRFTAQGLPDLNHSQVYAVKTVLQRPLSLIQGPPGTGKTVTSATIVYHLARQGNGPVLVCAPSNIAVDQLTEKIHQTGLKVVRLCAKSREAIDSPVSFLALHNQIRNMDSMPELQKLQQLKDETGELSSADEKRYRALKRTAERELLMNADVICCTCVGAGDPRLAKMQFRSILIDESTQATEPECMVPVVLGAKQLILVGDHCQLGPVVMCKKAAKAGLSQSLFERLVVLGIRPIRLQVQYRMHPALSAFPSNIFYEGSLQNGVTAADRVKKGFDFQWPQPDKPMFFYVTQGQEEIASSGTSYLNRTEAANVEKITTKLLKAGAKPDQIGIITPYEGQRSYLVQYMQFSGSLHTKLYQEVEIASVDAFQGREKDFIILSCVRANEHQGIGFLNDPRRLNVALTRARYGVIIVGNPKALSKQPLWNHLLNYYKEQKVLVEGPLNNLRESLMQFSKPRKLVNTINPGARFMTTAMYDAREAIIPGSVYDRSSQGRPSSMYFQTHDQIGMISAGPSHVAAMNIPIPFNLVMPPMPPPGYFGQANGPAAGRGTPKGKTGRGG
B2: SBP-UPF1 Δ1C (natural protein)
chain: MSVEAYGPSSQTLTFLDTEEAELLGADTQGSEFEFTDFTLPSQTQTPPGGPGGPGGGGAGGPGGAGAGAAAGQLDAQVGPEGILQNGAVDDSVAKTSQLLAELNFEEDEEDTYYTKDLPIHACSYCGIHDPACVVYCNTSKKWFCNGRGNTSGSHIVNHLVRAKCKEVTLHKDGPLGETVLECYNCGCRNVFLLGFIPAKADSVVVLLCRQPCASQSSLKDINWDSSQWQPLIQDRCFLSWLVKIPSEQEQLRARQITAQQINKLEELWKENPSATLEDLEKPGVDEEPQHVLLRYEDAYQYQNIFGPLVKLEADYDKKLKESQTQDNITVRWDLGLNKKRIAYFTLPKTDSDMRLMQGDEICLRYKGDLAPLWKGIGHVIKVPDNYGDEIAIELRSSVGAPVEVTHNFQVDFVWKSTSFDRMQSALKTFAVDETSVSGYIYHKLLGHEVEDVIIKCQLPKRFTAQGLPDLNHSQVYAVKTVLQRPLSLIQGPPGTGKTVTSATIVYHLARQGNGPVLVCAPSNIAVDQLTEKIHQTGLKVVRLCAKSREAIDSPVSFLANADVICCTCVGAGDPRLAKMQFRSILIDESTQATEPECMVPVVLGAKQLILVGDHCQLGPVVMCKKAAKAGLSQSLFERLVVLGIRPIRLQVQYRMHPALSAFPSNIFYEGSLQNGVTAADRVKKGFDFQWPQPDKPMFFYVTQGQEEIASSGTSYLNRTEAANVEKITTKLLKAGAKPDQIGIITPYEGQRSYLVQYMQFSGSLHTKLYQEVEIASVDAFQGREKDFIILSCVRANEHQGIGFLNDPRRLNVALTRARYGVIIVGNPKALSKQPLWNHLLNYYKEQKVLVEGPLNNLRESLMQFSKPRKLVNTINPGARFMTTAMYDAREAIIPGSVYDRSSQGRPSSMYFQTHDQIGMISAGPSHVAAMNIPIPFNLVMPPMPPPGYFGQANGPAAGRGTPKGKTGRGGRQKNRFGLPGPSQTNLPNSQASQDVASQPFSQGALTQGYISMSQPSQMSQPGLSQPELSQDSYLGDEFKSQIDVALSQDSTYQGERAYQHGGVTGLSQY
B3: SBP-UPF1 WT (natural protein)
chain: MSVEAYGPSSQTLTFLDTEEAELLGADTQGSEFEFTDFTLPSQTQTPPGGPGGPGGGGAGGPGGAGAGAAAGQLDAQVGPEGILQNGAVDDSVAKTSQLLAELNFEEDEEDTYYTKDLPIHACSYCGIHDPACVVYCNTSKKWFCNGRGNTSGSHIVNHLVRAKCKEVTLHKDGPLGETVLECYNCGCRNVFLLGFIPAKADSVVVLLCRQPCASQSSLKDINWDSSQWQPLIQDRCFLSWLVKIPSEQEQLRARQITAQQINKLEELWKENPSATLEDLEKPGVDEEPQHVLLRYEDAYQYQNIFGPLVKLEADYDKKLKESQTQDNITVRWDLGLNKKRIAYFTLPKTDSDMRLMQGDEICLRYKGDLAPLWKGIGHVIKVPDNYGDEIAIELRSSVGAPVEVTHNFQVDFVWKSTSFDRMQSALKTFAVDETSVSGYIYHKLLGHEVEDVIIKCQLPKRFTAQGLPDLNHSQVYAVKTVLQRPLSLIQGPPGTGKTVTSATIVYHLARQGNGPVLVCAPSNIAVDQLTEKIHQTGLKVVRLCAKSREAIDSPVSFLALHNQIRNMDSMPELQKLQQLKDETGELSSADEKRYRALKRTAERELLMNADVICCTCVGAGDPRLAKMQFRSILIDESTQATEPECMVPVVLGAKQLILVGDHCQLGPVVMCKKAAKAGLSQSLFERLVVLGIRPIRLQVQYRMHPALSAFPSNIFYEGSLQNGVTAADRVKKGFDFQWPQPDKPMFFYVTQGQEEIASSGTSYLNRTEAANVEKITTKLLKAGAKPDQIGIITPYEGQRSYLVQYMQFSGSLHTKLYQEVEIASVDAFQGREKDFIILSCVRANEHQGIGFLNDPRRLNVALTRARYGVIIVGNPKALSKQPLWNHLLNYYKEQKVLVEGPLNNLRESLMQFSKPRKLVNTINPGARFMTTAMYDAREAIIPGSVYDRSSQGRPSSMYFQTHDQIGMISAGPSHVAAMNIPIPFNLVMPPMPPPGYFGQANGPAAGRGTPKGKTGRGGRQKNRFGLPGPSQTNLPNSQASQDVASQPFSQGALTQGYISMSQPSQMSQPGLSQPELSQDSYLGDEFKSQIDVALSQDSTYQGERAYQHGGVTGLSQY

For this assay, the target named is Flag-HA-SBP-SMG6 (human, UniProt Q86US8 1-1419). The assay is described as follows: pull-down.
Flag-HA-SBP-SMG6, sequence (Q86US8 whole entry): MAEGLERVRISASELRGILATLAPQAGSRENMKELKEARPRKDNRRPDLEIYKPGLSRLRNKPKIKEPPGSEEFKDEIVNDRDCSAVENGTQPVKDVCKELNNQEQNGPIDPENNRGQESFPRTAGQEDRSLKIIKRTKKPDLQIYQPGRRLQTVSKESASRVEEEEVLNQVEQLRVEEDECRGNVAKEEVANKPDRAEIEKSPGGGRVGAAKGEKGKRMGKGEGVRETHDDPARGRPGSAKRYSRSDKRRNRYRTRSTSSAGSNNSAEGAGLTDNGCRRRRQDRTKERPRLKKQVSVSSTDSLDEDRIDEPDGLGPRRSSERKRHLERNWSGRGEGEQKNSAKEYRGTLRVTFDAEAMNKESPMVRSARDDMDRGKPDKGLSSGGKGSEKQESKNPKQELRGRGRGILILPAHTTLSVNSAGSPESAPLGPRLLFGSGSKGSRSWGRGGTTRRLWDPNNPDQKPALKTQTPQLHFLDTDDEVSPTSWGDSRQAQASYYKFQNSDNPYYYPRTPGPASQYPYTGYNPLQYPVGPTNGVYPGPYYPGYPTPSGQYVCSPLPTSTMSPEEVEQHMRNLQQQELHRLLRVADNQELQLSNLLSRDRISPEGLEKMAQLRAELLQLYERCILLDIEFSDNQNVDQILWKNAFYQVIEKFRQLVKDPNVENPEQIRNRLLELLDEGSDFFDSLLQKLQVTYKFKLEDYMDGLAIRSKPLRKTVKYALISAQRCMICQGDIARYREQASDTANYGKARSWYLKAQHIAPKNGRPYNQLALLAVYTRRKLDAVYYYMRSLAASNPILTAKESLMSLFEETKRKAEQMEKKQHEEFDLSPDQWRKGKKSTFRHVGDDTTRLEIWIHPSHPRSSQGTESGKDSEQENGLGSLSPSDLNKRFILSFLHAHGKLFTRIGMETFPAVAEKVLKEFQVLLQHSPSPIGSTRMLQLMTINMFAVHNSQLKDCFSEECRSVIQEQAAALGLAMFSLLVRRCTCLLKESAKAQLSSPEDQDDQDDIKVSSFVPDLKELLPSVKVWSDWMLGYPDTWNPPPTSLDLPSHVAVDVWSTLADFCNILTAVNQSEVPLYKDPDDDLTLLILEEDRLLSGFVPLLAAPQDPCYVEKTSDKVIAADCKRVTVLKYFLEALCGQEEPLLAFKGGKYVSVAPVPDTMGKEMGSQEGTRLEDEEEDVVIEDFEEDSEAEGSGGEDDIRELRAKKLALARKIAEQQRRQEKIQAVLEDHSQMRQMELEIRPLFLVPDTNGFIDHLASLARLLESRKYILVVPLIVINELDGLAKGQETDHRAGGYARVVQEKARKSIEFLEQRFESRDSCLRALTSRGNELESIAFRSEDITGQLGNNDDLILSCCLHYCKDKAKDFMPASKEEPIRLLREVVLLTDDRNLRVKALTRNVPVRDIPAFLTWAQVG
For B1, the binding result is given as “binds”. As for B2, the binding result was “binds”. For the molecule B3, the binding result was “binds”.

The values above are taken from publication PMC4132754 (Nucleic Acids Research, 2014).
